Numbering of substitutions follows the chain as printed. Read-outs that look alike come from different tables or passages of the source. Values belong to the binder of their own block, whether it stands above or below them.
How the values were obtained:
[1] = target: T1, human PAI-1 (human, UniProt P05121 24-402); assay: cell-based or functional assay
[2] = target: T2, glycosylated human PAI-1 (active form) (human, UniProt P05121 24-402, glycosylated); assay: cell-based or functional assay
[3] = target: T2, glycosylated human PAI-1 (active form); assay: cell-based or functional assay; remark: listed apart in the source
[4] = target: T2, glycosylated human PAI-1 (active form); assay: Biacore (summary table)
Procedure: (§1) In kinetics measurement, the antibodies were evaluated in reverse at 25° C. In the reverse assay, PAI-1 antibodies were captured to the anti-mouse IgG Fc antibody surface prepared on CM5 chip followed by injecting the serial 2× dilutions of PAI-1 proteins (human or cyno) starting at 40 nM. A high flow rate was chosen at 50 ul/min to avoid mass transportation limitation. Two thousand seconds was allowed for dissociation time to accommodate for the slow off rate of the selected antibodies. The chip was regenerated by glycine-HCl, pH 1.7 buffer after each round of antibody-PAI-1 binding. Kinetics data analysis was performed using Biacore BIAevaluation software. The sensorgrams were double-referenced by subtracting the reference flow cell values and the blank buffer values. The sensorgrams were fitted by using the simulated kinetics 1:1 (Langmuir) model with local Rmax.

[5] = target: T1, human PAI-1; assay: Biacore reverse assay, mAb captured by anti-mouse IgG Fc, 25 C; reverse assay: B28 captured by anti-mouse IgG Fc, PAI-1 injected, 25 C
Procedure: as §1

[6] = target: T1, human PAI-1; assay: Biacore, hybridoma supernatant; hybridoma supernatant, off-rate screen (class, not a fitted rate)
Procedure: In the Biacore reverse screening assay, ELISA positive hybridoma supernatants were selected and filtered through 0.2 μm filters before being injected onto Biacore chip surface. Each hybridoma supernatant was injected onto one flow cell of flow cells Fc2-Fc4 and the IgG in the hybridoma supernatant would be captured to the chip surface by anti-mouse IgG Fc mAb, while Fc1 was left alone as reference cells. Human PAI-1 protein in PBS was then injected to Fc1 to Fc4. PBS buffer was also injected over the chip surface as a blank. After subtracting signals of Fc1 and blank buffer runs, the binding affinity (KD)/disassociation rate (kd) of the antibody from the supernatants to PAI-1 protein was analyzed and ranked using Scrubber 2 software.

[7] = target: T2, glycosylated human PAI-1 (active form); assay: cell-based or functional assay; remark: listed apart in the source
[8] = target: T2, glycosylated human PAI-1 (active form); assay: cell-based or functional assay; remark: listed apart in the source
[9] = target: T1, human PAI-1; assay: cell-based or functional assay; remark: listed apart in the source
[10] = target: T1, human PAI-1; assay: Biacore, hybridoma supernatant
[11] = target: T3, human PAI-1 captured on immobilized human vitronectin (human, UniProt P04004 20-478); assay: Biacore forward assay, hPAI-1 captured on immobilized vitronectin
T3 construct: non-covalent complex formed on the chip or plate; also called PAI-1/Vn complex; Vn captured hPAI-1
Procedure: Binding kinetics of representative antibodies were further analyzed and compared in Biacore forward assay with vitronectin and PAI-1 complex. In the forward assay, human vitronectin protein was immobilized onto the CM5 chip in flow cells Fc1-Fc4 by amine coupling. Human PAI-1 was then captured to the vitronectin surface in flow cells Fc2-Fe4 as ligand. Fc1 was reserved as reference cell. The antibodies were diluted 2× starting from 40 nM and injected to Fc1-4. Kinetics data analysis was performed using Biacore BIAevaluation software. The sensorgrams were first double-referenced by subtracting the reference cell values and the blank buffer values, and then fitted by 1:1 (Langmuir) model was used with global Rmax.

[12] = target: T4, cynomolgus PAI-1 (cynomolgus monkey (Macaca fascicularis), UniProt P05121 24-402 (human entry)); assay: Biacore reverse assay, mAb captured by anti-mouse IgG Fc, 25 C
T4 construct: produced in-house in E. coli (non-glycosylated); active cyno PAI-1 in the assays; also called cyno PAI-1; cPAI-1
Procedure: as §1

[13] = target: T1, human PAI-1; assay: as above
Procedure: as §1

[14] = target: T1, human PAI-1; assay: cell-based or functional assay; remark: listed apart in the source
[15] = target: T5, cyno PAI-1 captured on immobilized human vitronectin (cynomolgus monkey; human, UniProt P04004 20-478, limits assumed); assay: Biacore, cPAI-1 on vitronectin chip, 1:1 model
T5 construct: non-covalent complex formed on the chip; also called cPAI-1/Vn

[16] = target: T4, cynomolgus PAI-1; assay: cell-based or functional assay
[17] = target: T3, human PAI-1 captured on immobilized …; assay: Biacore, hPAI-1 on vitronectin chip, 1:1 model
[18] = target: T3, human PAI-1 captured on immobilized …; assay: Biacore, hPAI-1 on vitronectin chip, two state reaction model (ka1); two state reaction model, ka1 is the first-step rate
[19] = target: T5, cyno PAI-1 captured on immobilized …; assay: Biacore, cPAI-1 on vitronectin chip, two state reaction model (kd1)
[20] = target: T3, human PAI-1 captured on immobilized …; assay: Biacore, hPAI-1 on vitronectin chip, two state reaction model (kd1)
[21] = target: T5, cyno PAI-1 captured on immobilized …; assay: Biacore, cPAI-1 on vitronectin chip, two state reaction model (ka1)
[22] = target: T3, human PAI-1 captured on immobilized …; assay: Biacore, hPAI-1 on vitronectin chip, two state reaction model
[23] = target: T5, cyno PAI-1 captured on immobilized …; assay: Biacore, cPAI-1 on vitronectin chip, two state reaction model

T4 sequence (P05121 other isoform, or with tags, fused parts or gaps limits assumed): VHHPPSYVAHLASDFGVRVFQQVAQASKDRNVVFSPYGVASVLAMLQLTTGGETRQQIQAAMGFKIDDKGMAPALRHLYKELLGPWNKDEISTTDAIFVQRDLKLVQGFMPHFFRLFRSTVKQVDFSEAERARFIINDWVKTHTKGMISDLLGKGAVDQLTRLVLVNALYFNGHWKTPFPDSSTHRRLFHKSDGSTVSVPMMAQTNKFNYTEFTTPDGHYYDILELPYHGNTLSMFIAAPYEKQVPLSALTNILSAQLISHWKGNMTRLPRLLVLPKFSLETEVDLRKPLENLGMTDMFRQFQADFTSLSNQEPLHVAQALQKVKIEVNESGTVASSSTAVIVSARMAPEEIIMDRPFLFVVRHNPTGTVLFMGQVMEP
T5 sequence (chain, as listed by the source limits assumed, chain 1 of 2): as the sequence (P05121 other isoform, or with tags, fused parts or gaps limits assumed) above
T5 sequence (P04004 20-478 limits assumed, chain 2 of 2): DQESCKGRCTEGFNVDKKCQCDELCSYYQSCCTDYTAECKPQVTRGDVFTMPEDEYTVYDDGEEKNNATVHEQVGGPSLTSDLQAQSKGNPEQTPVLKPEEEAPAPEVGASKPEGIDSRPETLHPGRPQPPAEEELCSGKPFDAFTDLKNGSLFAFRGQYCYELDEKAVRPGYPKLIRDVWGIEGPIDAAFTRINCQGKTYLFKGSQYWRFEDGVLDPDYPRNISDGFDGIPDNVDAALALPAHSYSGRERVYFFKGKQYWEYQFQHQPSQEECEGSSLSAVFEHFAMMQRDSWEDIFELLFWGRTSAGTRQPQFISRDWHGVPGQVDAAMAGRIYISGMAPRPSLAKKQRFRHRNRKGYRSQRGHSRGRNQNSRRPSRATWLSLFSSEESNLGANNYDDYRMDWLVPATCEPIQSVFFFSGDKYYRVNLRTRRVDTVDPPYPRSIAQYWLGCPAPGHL
T2 sequence (P05121 24-402 limits assumed): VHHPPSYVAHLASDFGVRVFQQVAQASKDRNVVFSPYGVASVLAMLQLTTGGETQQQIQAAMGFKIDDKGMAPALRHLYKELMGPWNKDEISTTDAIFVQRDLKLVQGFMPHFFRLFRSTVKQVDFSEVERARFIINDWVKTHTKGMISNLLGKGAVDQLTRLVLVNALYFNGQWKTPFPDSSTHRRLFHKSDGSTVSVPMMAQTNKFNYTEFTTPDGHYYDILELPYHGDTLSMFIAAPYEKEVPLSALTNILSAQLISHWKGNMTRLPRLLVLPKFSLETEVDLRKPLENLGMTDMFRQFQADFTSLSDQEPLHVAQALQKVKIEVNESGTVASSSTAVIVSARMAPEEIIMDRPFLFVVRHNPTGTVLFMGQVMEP
T3 sequence (chain, as listed by the source limits assumed, chain 1 of 2): as the sequence (P05121 24-402 limits assumed) above
T3 sequence (P04004 20-478 limits assumed, chain 2 of 2): as the sequence (P04004 20-478 limits assumed, chain 2 of 2) above
T1 sequence (P05121 24-402 limits assumed): as the sequence (P05121 24-402 limits assumed) above

EC50, % neutralization of hPAI-1 (chromogenic assay) [1]: 2300 pM
Chromogenic Assays [2]: 1.8 nM
Plasmin Generation [2]: 7.28 nM
plasmin generation, hepatic stellate cells, IC50abs [3]: 7280 pM
plasmin generation, hepatic stellate cells, Imax [3]: 90%
Kd [4]: 650 pM
Kd [5]: 650 pM
koff [5]: 0.000461 s⁻¹
koff [6]: ≤ 0.0001 s⁻¹
B1: B28 (antibody, mouse IgG2b, V domains shown)
VH: QVQLQQSGAELMKPGASVKISCKATGYTFSISWIEWIKQRPGGLEWIGKILPGSGGANYNEKFKGKATVTADTSSNTVYMQLSSLTSEDSAVYYCARLSTGTRGAFDYWGQGTTLTVSS
VL: DIQLTQSPASLSASVGATVTITCRASENVYSYLAWYQQKQGKSPQLLVYNAKTLAEGVPSRFSGSGSGTQFSLKINYLQPEDFGSYYCQHHYGTPPTFGGGTKVEIKR
notes: mouse IgG2b/kappa; also called mB28; B28 (IgG2b/k)

Plasminogen Activation IC50 [7]: 3130 pM
Plasminogen Activation Y50% [7]: 79.8%
Plasminogen Activation IC50 [8]: 3170 pM
Plasminogen Activation Y50% [8]: 46%
Chromogenic Assay IC50 [9]: 440 pM
koff [10]: ≤ 0.0001 s⁻¹
Kd [11]: ≤ 1 pM
koff [11]: ≤ 1e-06 s⁻¹
Kd [12]: ≤ 0.1 pM
koff [12]: ≤ 1e-06 s⁻¹
Kd [13]: 3.76 pM
koff [13]: 1.49e-05 s⁻¹
Plasmin Generation [2]: 3.32 nM
plasmin generation, hepatic stellate cells, IC50abs [3]: 3320 pM
plasmin generation, hepatic stellate cells, Imax [3]: 97%
EC50, fall of % tPA inhibition by PAI-1 (chromogenic neutralisation assay) [14]: 4030 pM
Kd [4]: 0.042 pM
Kd [15]: 69.6 pM
koff [15]: 0.000275 s⁻¹
kon [15]: 3.98e+06 M⁻¹ s⁻¹
EC50, % PAI-1 neutralization, 2.8 nM cyno PAI-1 (chromogenic assay with human tPA); plateau about 100 % [16]: 226 pM
Kd [17]: 40.4 pM
koff [17]: 0.000229 s⁻¹
kon [17]: 5.68e+06 M⁻¹ s⁻¹
B2: A44 (antibody, mouse IgG1, V domains shown)
VH: EMQLQESGPSLVKPSQTLSLTCSVTGDSMTNGYWNWIRKFPGNKLEYMGYITYSGSTYYNPSLKGRISITRNTSKNQYYLQLSSVTTEDTATYYCARWHYGSPYYFDYWGQGTTLTVSS
VL: DIKMTQSPSSMYASLGERVTITCKASQDINSYLSWLQQKPGKSPKTLIYRANRSVDGVPSRFSGSGSGQDYSLTISSLEYEDMGIYYCLQYDEFPPTFGGGTKLEIKR
notes: mouse IgG1/kappa; also called mA44; A44 parental

B3: A44-hv2 (antibody, V domains shown)
VH: B2 VH with S10G, Q16E, N43K, K44G, Q81K, E88A
VL: DIKMTQSPSSVSVSPGQTVTITCKASQDINSYLSWLQQKPGQSPKTLIYRANRSVDGVPSRFSGSGSGQDYSLTISSLQAMDEGIYYCLQYDEFPPTFGGGTKLTIK
notes: humanized A44, HEK293; constant regions as for A44-hv1; also called LC1b x HC1b; variant 2
kon [18]: 2.99e+06 M⁻¹ s⁻¹
koff [19]: 0.000314 s⁻¹
Chromogenic Assay IC50 [9]: 600 pM
koff [20]: 0.000403 s⁻¹
kon [21]: 2.3e+06 M⁻¹ s⁻¹
Kd [22]: 135 pM
Kd [23]: 137 pM
